These results are taken from patent US7317096 (LEADD B V, dated 2008).

This data set deals with the molecule itself. The experiment in a line: size exclusion chromatography (Superose 6 HR 10/30).

B1: MBP-AAP-1 fusion protein (pMAL-AAP-1) (other, not shown: large carriers)
chain: MTMGDKKSPTRPKRQAKPAADEGFWDCSVCTFRNSAEAFKCSICDVRKGTSTRKPRINSQLVAQQVAQQYATPPPPKKEKKEKVEKQDKEKPEKDKEISPSVTKKNTNKKTKPKSDILKDPPSEANSIQSANATTKTSETNHTSRPRLKNVDRSTAQQLAVTVGNVTVIITDFKEKTRSSSTSSSTVTSSAGSEQQNQSSSGSESTDKGSSRSSTPKGDMSAVNDESF
notes: Produced in E. coli, 90 to 95% pure; Printed as 'a Homotrimer or Homo-tetramer'; also called MBP-AAPI
Regarding B1, the binding result was “binds”.
